Experimental data taken from patent EP2469278A1, “Reagentless fluorescent biosensors from nanofitins, rational design methods to create reagentless fluorescent biosensors and methods of their use” (Institut Pasteur, priority 2010, dated 2012).

Columns and labels:
hen egg-white lysozyme [1] = molecular target: T1, hen egg-white lysozyme (hen, UniProt P00698 19-147); test: from Kd in solution: fluorescence titration of conjugate against competition Biacore of H4S(wt)
T1 construct: also called HEL

hen egg-white lysozyme [2] = molecular target: T1, hen egg-white lysozyme; test: fluorescence titration in solution, 0.3 µM conjugate, buffer C, 25 °C
[3] = molecular target: T2, hen egg-white lysozyme (HEL) (Gallus gallus, UniProt P00698); test: Titration of H4S conjugates with HEL, monitored by fluorescence; format: binding; details: for sr: relative sensitivity of the conjugate at a fixed concentration of 0.3 µM (Equation 8), HEL; for ΔΔG: decrease of free energy of interaction with HEL on fluorophore conjugation, from Kd of conjugate versus H4S(wt); for ΔF∞/F0: maximal variation of F at λmax on HEL binding
T2 construct: hen egg-white lysozyme (HEL); purchased Sigma
Experimental: The binding and fluorescence experiments were performed at equilibrium as if the preparations of conjugates were homogeneous, i. e. as if yc = 1. The binding reactions were conducted by incubating 0.3 µM of conjugate with variable concentrations of the HEL or BSA antigens in a volume of 1 mL, for 30 min in the dark with gentle shaking. The reactions were carried out in Buffer C or in a mixture v:(1-v) of calf serum and Buffer C as indicated in example 2.
The conjugate (or biosensor) B and antigen A form a 1:1 complex B:A according to the reaction: B + A↔B:A [formula] At equilibrium, the concentration [B:A] of the complex is given by the equation: [B:A] = 0.5{[B]0+[A]0+Kd-(((([B]0+[A]0+Kd))^2-4[B]0[A]0))^(1/2)} [formula] where Kd is the dissociation constant, and [A]0 and [B]0 are the total concentrations of A and B, respectively (Renard et al., 2003).
The fluorescence of the IANBD conjugates was excited at 485 nm (5 nm slit width) and its intensity measured between 520 and 550 nm (20 nm slit width) with a FP-6300 spectrofluorometer (Jasco). The signal of HEL alone or BSA alone was measured in an independent experiment and subtracted from the global signal of the binding mixture to give the specific fluorescence intensity F of each conjugate. The intensity F at a given value of [A]0 satisfies the following equation: (F-F0)/F0 = ΔF/F0 = (ΔF∞/F0)([B:A]/[B]0) [formula] where F0 and F∞ are the values of F at zero and saturating concentrations of A (Renard et al., 2003). The values of ΔF∞/F0, Kd, and [B]0 could be determined by fitting Equation 5, in which [B:A] is given by Equation 4, to the experimental values of ΔF/F0, measured in a titration experiment. The fittings were performed with the Kaleidagraph software (Synergy Software).
The sensitivity s and relative sensitivity sr of a conjugate can be defined by the following equations for the low values of [A]0, i. e. in the initial part of the titration curve: ΔF = s[A]0 [formula] ΔF/F0 = sr [A]0 /[B]0 [formula] s and sr can be expressed as functions of characteristic parameters of the conjugate: sr = (ΔF∞/F0)([B]0/(Kd+[B]0)) [formula] s = fb sr [formula] where fb = F0/[B]0 is the molar fluorescence of the free conjugate (Renard and Bedouelle, 2004). Equation 8 implies that sr is maximal when the biosensor B is present at a concentration [B]0 >> Kd, as every newly titrated molecule A then forms a complex. Equation 6 implies that the lower limit of detection δ[A]0 of the conjugate is linked to the lower limit of measurement of the spectrofluorometer δF by the following equations: δ[A]0 = s^-1 δF = sr^-1 [B]0 (δF/F0) [formula]

[4] = 0.3 µM conjugate, buffer C, 25 °C, value ± SE of fitting

| sr ([3]; buffer C) | ΔΔG [3] [kcal/mol] | Molecule | also measured |
| --- | --- | --- | --- |
| – | – | H4S conjugate, IANBD fluorophore coupled at position Asn9 (designed binder, Cys at position 9 (H4S numbering) coupled to IANBD ester (ANBD)) MRGSHHHHHHGSVKVKFFWCGEEKEVDTSKIVWVKRAGKSVLFIYDDNGKNGYGDVTEKDAPKELLDMLARAEREKKLN | ΔΔG (conjugate against H4S(wt)) (hen egg-white lysozyme [1]): ≤ 0.5 kcal/mol; Kd (hen egg-white lysozyme [2]): 7 nM; ΔF∞/F0 (maximal relative variation of fluorescence on HEL binding) (hen egg-white lysozyme [2]): 0.52 |
| 3.17 | – | Val21: H4S conjugate: residue Val21 changed into cysteine and coupled with IANBD (SEQ ID NO: 60) (conjugate, IANBD fluorophore on Cys21) MRGSHHHHHHGSVKVKFFWNGEEKEVDTSKICWVKRAGKSVLFIYDDNGKNGYGDVTEKDAPKELLDMLARAEREKKLN | – |
| nm | ≥ 1.5 | Ile33: H4S conjugate: residue Ile33 changed into cysteine and coupled with the IANBD fluorophore (conjugate) MRGSHHHHHHGSVKVKFFWNGEEKEVDTSKIVWVKRAGKSVLFCYDDNGKNGYGDVTEKDAPKELLDMLARAEREKKLN | Kd ([3]; fluorescence titration with HEL, 0.3 µM conjugate, buffer C, 25 °C, value ± SE of fitting): nM; ΔF∞/F0 [3, 4]: nm |
| 1.16 | – | Lys39: H4S conjugate: residue Lys39 changed into cysteine and coupled with IANBD (SEQ ID NO: 63) (conjugate, IANBD fluorophore on Cys39) MRGSHHHHHHGSVKVKFFWNGEEKEVDTSKIVWVKRAGKSVLFIYDDNGCNGYGDVTEKDAPKELLDMLARAEREKKLN | – |
| 0.24 | ≤ 0.5 | Lys28: H4S conjugate: residue Lys28 changed into cysteine and coupled with the IANBD fluorophore (conjugate) MRGSHHHHHHGSVKVKFFWNGEEKEVDTSKIVWVKRAGCSVLFIYDDNGKNGYGDVTEKDAPKELLDMLARAEREKKLN | – |
| 0.06 | ≥ 1.5 | Trp22: H4S conjugate: residue Trp22 changed into cysteine and coupled with the IANBD fluorophore (conjugate) MRGSHHHHHHGSVKVKFFWNGEEKEVDTSKIVCVKRAGKSVLFIYDDNGKNGYGDVTEKDAPKELLDMLARAEREKKLN | ΔF∞/F0 [3, 4]: 0.3±0.1 |
| 0.72 | ≥ 1.5 | Tyr42: H4S conjugate: residue Tyr42 changed into cysteine and coupled with the IANBD fluorophore (conjugate) MRGSHHHHHHGSVKVKFFWNGEEKEVDTSKIVWVKRAGKSVLFIYDDNGKNGCGDVTEKDAPKELLDMLARAEREKKLN | – |
| 0.22 | ≤ 0.5 | Phe7: H4S conjugate: residue Phe7 changed into cysteine and coupled with the IANBD fluorophore (conjugate) MRGSHHHHHHGSVKVKFCWNGEEKEVDTSKIVWVKRAGKSVLFIYDDNGKNGYGDVTEKDAPKELLDMLARAEREKKLN | – |
| 0.27 | ≤ 0.5 | Thr46: H4S conjugate: residue Thr46 changed into cysteine and coupled with the IANBD fluorophore (conjugate) MRGSHHHHHHGSVKVKFFWNGEEKEVDTSKIVWVKRAGKSVLFIYDDNGKNGYGDVCEKDAPKELLDMLARAEREKKLN | – |
| 0.90 | – | Trp8: H4S conjugate: residue Trp8 changed into cysteine and coupled with IANBD (SEQ ID NO: 59) (conjugate, IANBD fluorophore on Cys8) MRGSHHHHHHGSVKVKFFCNGEEKEVDTSKIVWVKRAGKSVLFIYDDNGKNGYGDVTEKDAPKELLDMLARAEREKKLN | – |
| – | ≤ 0.5 | Asn9: H4S conjugate: residue Asn9 changed into cysteine and coupled with the IANBD fluorophore (conjugate) MRGSHHHHHHGSVKVKFFWCGEEKEVDTSKIVWVKRAGKSVLFIYDDNGKNGYGDVTEKDAPKELLDMLARAEREKKLN | – |
| – | ≤ 0.5 | Ser29: H4S conjugate: residue Ser29 changed into cysteine and coupled with the IANBD fluorophore (conjugate) MRGSHHHHHHGSVKVKFFWNGEEKEVDTSKIVWVKRAGKCVLFIYDDNGKNGYGDVTEKDAPKELLDMLARAEREKKLN | – |
| 0.49 | ≥ 1.5 | Asp44: H4S conjugate: residue Asp44 changed into cysteine and coupled with the IANBD fluorophore (conjugate) MRGSHHHHHHGSVKVKFFWNGEEKEVDTSKIVWVKRAGKSVLFIYDDNGKNGYGCVTEKDAPKELLDMLARAEREKKLN | – |
| 0.07 | ≥ 1.5 | Asn40: H4S conjugate: residue Asn40 changed into cysteine and coupled with the IANBD fluorophore (conjugate) MRGSHHHHHHGSVKVKFFWNGEEKEVDTSKIVWVKRAGKSVLFIYDDNGKCGYGDVTEKDAPKELLDMLARAEREKKLN | – |
| 0.17 | ≥ 1.5 | Leu31: H4S conjugate: residue Leu31 changed into cysteine and coupled with the IANBD fluorophore (conjugate) MRGSHHHHHHGSVKVKFFWNGEEKEVDTSKIVWVKRAGKSVCFIYDDNGKNGYGDVTEKDAPKELLDMLARAEREKKLN | – |
| – | – | H4S conjugate, IANBD fluorophore coupled at position Asp44 (designed binder, Cys at position 44 (H4S numbering) coupled to IANBD ester (ANBD)) MRGSHHHHHHGSVKVKFFWNGEEKEVDTSKIVWVKRAGKSVLFIYDDNGKNGYGCVTEKDAPKELLDMLARAEREKKLN | ΔΔG (conjugate against H4S(wt)) (hen egg-white lysozyme [1]): ≥ 1.5 kcal/mol; Kd (hen egg-white lysozyme [2]): 623 nM; ΔF∞/F0 (maximal relative variation of fluorescence on HEL binding) (hen egg-white lysozyme [2]): 1.5 |
| – | – | H4S conjugate, IANBD fluorophore coupled at position Asn40 (designed binder, Cys at position 40 (H4S numbering) coupled to IANBD ester (ANBD)) MRGSHHHHHHGSVKVKFFWNGEEKEVDTSKIVWVKRAGKSVLFIYDDNGKCGYGDVTEKDAPKELLDMLARAEREKKLN | ΔΔG (conjugate against H4S(wt)) (hen egg-white lysozyme [1]): ≥ 1.5 kcal/mol; Kd (hen egg-white lysozyme [2]): 2000 nM; ΔF∞/F0 (maximal relative variation of fluorescence on HEL binding) (hen egg-white lysozyme [2]): 0.57 |
| – | – | H4S conjugate, IANBD fluorophore coupled at position Leu31 (designed binder, Cys at position 31 (H4S numbering) coupled to IANBD ester (ANBD)) MRGSHHHHHHGSVKVKFFWNGEEKEVDTSKIVWVKRAGKSVCFIYDDNGKNGYGDVTEKDAPKELLDMLARAEREKKLN | ΔΔG (conjugate against H4S(wt)) (hen egg-white lysozyme [1]): ≥ 1.5 kcal/mol; Kd (hen egg-white lysozyme [2]): 8360 nM; ΔF∞/F0 (maximal relative variation of fluorescence on HEL binding) (hen egg-white lysozyme [2]): 4.9 |
